Entries after “also recorded” stand apart in the source; their conditions may differ.
T1: interaction of CD70 with its receptor CD27 (Homo sapiens, UniProt P32970)
T1 sequence (P32970 1-193): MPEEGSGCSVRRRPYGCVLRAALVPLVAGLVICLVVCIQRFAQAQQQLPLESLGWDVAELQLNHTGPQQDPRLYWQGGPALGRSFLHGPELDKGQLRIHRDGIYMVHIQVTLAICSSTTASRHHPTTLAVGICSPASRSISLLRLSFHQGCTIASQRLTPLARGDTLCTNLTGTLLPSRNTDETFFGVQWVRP

B1: cusatuzumab: monoclonal IgG1 anti-CD70 antibody, afucosylated for enhanced ADCC; CDR, VH and VL sequences in Table 1 (antibody, V domains shown)
VH: EVQLVESGGGLVQPGGSLRLSCAASGFTFSVYYMNWVRQAPGKGLEWVSDINNEGGTTYYADSVKGRFTISRDNSKNSLYLQMNSLRAEDTAVYYCARDAGYSNHVPIFDSWGQGTLVTVSS
VL: QAVVTQEPSLTVSPGGTVTLTCGLKSGSVTSDNFPTWYQQTPGQAPRLLIYNTNTRHSGVPDRFSGSILGNKAALTITGAQADDEAEYFCALFISNPSVEFGGGTQLTVLG

What was measured:
[1] = test system: ROS-low LSCs from mono-AML and prim-AML; conditions: versus ROS-low LSCs from primitive AML (Pei et al. 2020); cited from earlier work
[2] = cited from earlier work
[3] = test system: total mononuclear cell fraction of M4/5 samples; conditions: M4/5 AML samples, ex vivo; cited from earlier work
[4] = test system: CD70 positive monocytic AML cells; test: Cusatuzumab-mediated NK-dependent ADCC on primary AML bone marrow samples; format: cell-based, human; conditions: 10 μg/ml, 24 hours
Source text: FIG. 7B is a bar graph showing the effect on monocytic and primitive AML cells. following administration of cusatuzumab, 41D12 FcDead antibody and a vehicle control. […] One-way ANOVA test was used to determine significance. *p<0.05.
FIG. 7C is a bar graph showing the effect on monocytic AML cells following administration of cusatuzumab, 41D12 FcDead antibody and a vehicle control. […] One-way ANOVA test was used to determine significance. ***p<0.001.
Cusatuzumab is an afucosylated anti-human CD70 antibody with enhanced properties to mediate NK-dependent antibody-dependent cellular cytotoxicity (ADCC) (Silence et al. 2014). VEN+AZA resistant CD70 positive monocytic AML (CD45^bright/SSC^high/CD38^+/CD34^−/CD33^+/CD11b^+/CD70^+) and mixed phenotype samples containing CD70 positive monocytic cells (CD45^bright/SSC^high/CD38^+/CD34^−/CD33^+/CD11b^+/CD70^+) and CD70 negative VEN+AZA sensitive primitive cells (CD45^medium/SSC^low/CD34^−/CD33^+/CD11b^+/CD70^− containing both CD38^+ and CD38^− populations) (FIG. 7A) were tested for sensitivity to cusatuzumab-mediated ADCC. Both types of primary bone marrow samples were treated with cusatuzumab at 10 μg/ml concentration and co-incubated with human NK cells isolated by a negative selection from healthy donor PBMCs. NK cells were added in 1:5 and 1:15 target to effector cells (T:E) ratio to monocytic AML and mixed phenotype bone marrow samples, respectively. Cells were co-cultured for 24 hours at 37° C. in cell culture incubator. Flow cytometry analysis was performed in order to measure number of primitive and monocytic AML cells and estimate the level of ADCC for particular sample. […] This supports the specificity of cusatuzumab-mediated effects in the targeting of CD70-positive VEN+AZA resistant monocytic AML cells.

[5] = test system: LSCs from VEN+AZA resistant monocytic AML bone marrow samples; test: Colony forming unit (CFU) assay after incubation with antibody and NK cells; format: cell-based, human; conditions: 10 μg/ml antibody, NK cells 1:5 T:E, 24-hour incubation, then 14 days in methocult medium
Method: FIG. 9 is a bar graph showing the effect of antibody treatment on leukemic stem cells from CD70 positive VEN+AZA resistant monocytic AML bone marrow samples. Data is normalized to the no antibody control colony forming units (CFU) for isotype control, blocking anti-CD70 antibody 41D12 FcDead and cusatuzumab. VEN+AZA resistant monocytic AML bone marrow samples were incubated with NK cells (1:5 T:E ratio) in the presence of antibodies (10 μg/ml) and then cultured in CFU medium in order to determine if LSCs were also efficiently targeted by cusatuzumab-mediated NK-dependent ADCC. […] One-way ANOVA test was used to determine significance. ****p<0.0001.
In order to test if CD70 positive LSCs from VEN+AZA resistant monocytic AML bone marrow samples could be targeted by cusatuzumab, bone marrow samples coming from VEN+AZA resistant samples were first incubated with cusatuzumab (10 μg/ml) and NK cells isolated from PBMCs from healthy donor (1:5 T:E ratio). After a 24-hour incubation samples were moved to methocult medium and further cultured in order to check if LSCs were targeted by cusatuzumab-mediated ADCC. No treatment, human IgG1 isotype control and blocking 41D12 FcDead antibody were used as negative controls. Cells were incubated in cell culture incubator at 37° C. for 14 days and colony forming units (CFU) were estimated by counting growing colonies.

[6] = test system: VEN+AZA resistant monocytic AML cells; test: Patient-derived xenograft mouse model, monocytic AML cells in mouse bone marrow; format: in vivo, NSGS mice; conditions: 3 doses every 3 days, cusatuzumab 10 mg/kg, Ven 100 mg/kg + Aza 3 mg/kg
Method: FIG. 10 is a bar graph showing the efficacy of anti-CD70 antibody treatment in the presence of NK cells in a patient-derived xenograft mouse model. NSGS mice were engrafted with VEN+AZA resistant monocytic AML bone marrow sample. When engraftment level in bone marrow reached around 25% of leukemic cells, animals were treated 3 times every 3 days with cusatuzumab or VEN+AZA with or without a single infusion of 1.5×10^6 NK cells. After 9 days animals were sacrificed, bone marrow from femur isolated and the number of malignant monocytic cells in bone marrow was determined. […] Mann-Whitney test was used to determine significance. *p<0.05, **p<0.01, ***p<0.001, ****p<0.0001.
Patient samples injected in NSGS mice engraft in mouse bone marrow. The efficiency of anti-leukemic compounds can be measured stringently using therapeutic approaches after full engraftment of patient-derived samples and by determination of the reduction of malignant cells in mouse bone marrow. 2×10^6 cells from bone marrow from VEN+AZA resistant monocytic AML per NSGS mouse were engrafted for 42 days. One cohort of animals was treated with vehicle, combination of 100 mg/kg Ven and 3 mg/kg Aza or 10 mg/kg cusatuzumab. […] One day after the third dose animals were sacrificed and bone marrow from femur was isolated and samples were analysed by flow cytometry to determine the number of monocytic AML cells. […]

[7] = target: T1, interaction of CD70 with its receptor CD27; conditions: Silence et al. (2014); cited from earlier work
[8] = test system: CD70-induced CD27 signaling; conditions: Silence et al. (2014); cited from earlier work
[9] = test system: leukemic stem cells (LSCs) in AML patients; conditions: in combination with azacitidine; see WO2018/229303; cited from earlier work
[10] = test system: CD70-expressing tumor cells; conditions: cited from earlier work

| Molecule | resistance of ROS-low LSCs from monocytic AML [1] | aqueous solubility [2] | venetoclax sensitivity [3] | NK cell-dependent ADCC of monocytic cells ([4]; VEN+AZA resistant monocytic AML bone marrow sample, NK cells 1:5 T:E) | NK cell-dependent ADCC of monocytic cells ([4]; VEN+AZA resistant monocytic AML bone marrow sample, NK cells 1:5 T:E, listed as Cusatuzumab) | NK cell-dependent ADCC of monocytic cells ([4]; mixed phenotype AML bone marrow sample, NK cells 1:15 T:E) | NK cell-dependent ADCC of monocytic cells ([4]; mixed phenotype AML bone marrow sample, NK cells 1:15 T:E, listed as Cusatuzumab) | number of growing colonies (CFU) versus no treatment control [5] | malignant human CD45+CD11b+CD117− cells in mouse bone marrow ([6]; in the absence of human NK cells) | malignant human CD45+CD11b+CD117− cells in mouse bone marrow ([6]; in the presence of human NK cells (1.5×10^6)) | interaction of CD70 with its receptor CD27 [7] | CD70-induced CD27 signaling [8] | leukemic stem cells (LSCs) in AML patients [9] | antibody dependent cellular phagocytosis (ADCP) of CD70-expressing cells ([10]; Silence et al. (2014)) | lysis of CD70-expressing tumor cells via antibody dependent cell-mediated cytotoxicity (ADCC) [10] | lysis of CD70-expressing tumor cells via complement dependent cytotoxicity (CDC) [10] |
| --- | --- | --- | --- | --- | --- | --- | --- | --- | --- | --- | --- | --- | --- | --- | --- | --- |
| CC1(C)CCC(CN2CCN(c3ccc(C(=O)NS(=O)(=O)c4ccc(NCC5CCOCC5)c([N+](=O)[O-])c4)c(Oc4cnc5[nH]ccc5c4)c3)CC2)=C(c2ccc(Cl)cc2)C1 [venetoclax, 4-(4-{[2-(4-chlorophenyl)-4,4dimethylcyclohex-1-en-1-yl]methyl}piperazin-1-yl)-N-({3-nitro-4-[(tetrahydro-2H-pyran-4ylmethyl)amino]phenyl}sulfonyl)-2-(1H-pyrrolo[2,3-b]pyridin-5-yloxy)benzamide] | increased resistance | very low | decreased |  |  |  |  |  |  |  |  |  |  |  |  |  |
| B1 |  |  |  | significantly targeted | significantly mediate NK-dependent cell killing | significantly targeted | significantly mediate NK-dependent cell killing | clear drop in the number of growing colonies; also recorded: significantly reduce the number of LSCs | no significant effect | significant reduction; also recorded: significantly reduced levels of monocytic AML cells | inhibit the interaction of CD70 with its receptor CD27 | inhibit CD70-induced CD27 signaling | efficiently reduced | increase antibody dependent cellular phagocytosis (ADCP) | lyse CD70-expressing tumor cells | lyse CD70-expressing tumor cells |

From patent US20240182590A1, “METHOD OF TREATMENT OF PATIENTS HAVING REDUCED SENSITIVITY TO A BCL-2 INHIBITOR” (argenx BV, priority 2020, published 2024)
